{
  "source": "patent US20190263864A1",
  "about": "(GENOIMMUNE THERAPEUTICS, published 2019)",
  "binders": {"B1": {"name": "wild-type polypeptide (depicted in FILDGSYSV, SEQ ID NO:7) (peptide)", "peptide": "FILDGSYSV"}, "B2": {"name": "mutant polypeptide's variant (depicted in FLLDGLYSV, SEQ ID NO:4) (peptide)", "peptide": "FLLDGLYSV"}, "B3": {"name": "mutant polypeptide's variant (depicted in FMLDGLYSV, SEQ ID NO:3) (peptide)", "peptide": "FMLDGLYSV"}, "B4": {"name": "mutant polypeptide's variant (depicted in FILDGLYSL, SEQ ID NO:2) (peptide)", "peptide": "FILDGLYSL"}, "B5": {"name": "mutant polypeptide's variant (depicted in FMLDGLYSL, SEQ ID NO:5) (peptide)", "peptide": "FMLDGLYSL"}, "B6": {"name": "mutant polypeptide's variant (depicted in FLLDGLYSL, SEQ ID NO:6) (peptide)", "peptide": "FLLDGLYSL"}, "B7": {"name": "mutant polypeptide (depicted in FILDGLYSV, SEQ ID NO:1) (peptide)", "peptide": "FILDGLYSV"}},
  "data": [
    {"biological_target": "T1, HLA-A0201 on the surface of T2 cells (human)", "T1 construct": "MHC class I molecule on TAP-deficient T2 cells", "assay": "T2 cell peptide loading, 100 µM peptide, anti-HLA-A*02:01 FITC flow cytometry", "protocol": "After centrifugation at 200 g for 5 minutes for cell collection, the collected cells were washed with phosphate buffer saline (PBS) buffer twice, before incubated with anti-HLA-A*02:01 FITC monoclonal antibody at 4° C. for 30 minutes. The mean fluorescence intensity of cells was then detected and analyzed by the flow cytometry (BD FACSJazz™) and its software.", "values": [
      {"binder": "B1", "FI (fluorescence index)": 1.59, "Mean fluorescence intensity": 589},
      {"binder": "B2", "FI (fluorescence index)": 2.04, "Mean fluorescence intensity": 692},
      {"binder": "B3", "FI (fluorescence index)": 2.34, "Mean fluorescence intensity": 759},
      {"binder": "B4", "FI (fluorescence index)": 1.99, "Mean fluorescence intensity": 681},
      {"binder": "B5", "FI (fluorescence index)": 2.14, "Mean fluorescence intensity": 714},
      {"binder": "B6", "FI (fluorescence index)": 1.69, "Mean fluorescence intensity": 612},
      {"binder": "B7", "FI (fluorescence index)": 1.92, "Mean fluorescence intensity": 664}
    ]}
  ]
}
